Series [1] concerns Cc1cc(=O)oc2cc(NC(=O)[C@H](CCCNC(=N)N)NC(=O)[C@@H](N)CCCNC(=N)N)ccc12. In words: purified protein, by the assay type. The following applies: pH 8.0; 26.0 °C.
Series [2] concerns N=C(N)NCCC[C@H](NC(=O)[C@@H](N)CCCNC(=N)N)C(=O)Nc1ccc2ccccc2c1. In words: purified protein, by the assay type. Conditions: pH 8.0; 26.0 °C.

What is called Km is the substrate concentration at which the rate is half of its maximum. A word on the kcat: it is the maximal rate divided by the concentration of active sites. As a reminder, the kcat/Km is the second-order rate constant that governs catalysis at low substrate concentration. As for “DPP III fragment (1–679 aa) (Porphyromonas gingivalis W83)”, in series [1], the Michaelis-Menten constant (Km) was 9.97 ± 0.44 µM, the turnover number (kcat) is 0.0024 ± 0.0014 s⁻¹ and the catalytic efficiency (kcat/Km) came out at 241 M⁻¹ s⁻¹. Further, in series [2], the Km worked out at 4.37 ± 0.42 µM, the kcat was found to be 0.0032 ± 0.0005 s⁻¹ and the kcat/Km was determined as 732 M⁻¹ s⁻¹.

Source of the values: publication PMC5708649, “A novel Porphyromonas gingivalis enzyme: An atypical dipeptidyl peptidase III with an ARM repeat domain” (PLoS ONE, 2017).
